Experimental data: publication doi:10.1101/2024.07.10.601956

Target: Synthetic Mtln protein (UniProt Q8NCU8)
Assay: mass photometry

In the case of “Synthetic Mtln protein (from UniProt Q8NCU8 1-56) (natural protein)”, the stoichiometry N is reported as 6.
